Laboratory results from article PMC2756588.

Assays:
Assay in all cases: SPOT array
Sla1-2, P32790 = biological target: T1, Sla1-2, P32790; details: median of control spots 712
T1 sequence (P32790 60-140, looked up): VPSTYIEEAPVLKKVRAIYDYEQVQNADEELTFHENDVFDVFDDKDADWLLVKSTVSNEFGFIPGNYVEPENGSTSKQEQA

Cdc25, P04821 = biological target: T2, Cdc25, P04821; details: median of control spots 969
T2 sequence (P04821 50-136, looked up): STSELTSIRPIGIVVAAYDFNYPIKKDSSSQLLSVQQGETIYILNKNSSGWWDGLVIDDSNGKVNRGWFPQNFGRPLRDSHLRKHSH

Lsb1, P53281 = biological target: T3, Lsb1, P53281; details: median of control spots 388
T3 sequence (P53281 45-122, looked up): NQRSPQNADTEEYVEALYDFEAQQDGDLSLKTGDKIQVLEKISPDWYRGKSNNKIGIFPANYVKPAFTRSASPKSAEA

Cyk3, Q07533 = biological target: T4, Cyk3, Q07533; details: median of control spots 1451
T4 sequence (Q07533 1-83, looked up): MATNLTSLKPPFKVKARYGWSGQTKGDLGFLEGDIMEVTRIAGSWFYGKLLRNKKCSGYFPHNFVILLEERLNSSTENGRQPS

Bzz1-2, P38822 = biological target: T5, Bzz1-2, P38822; details: median of control spots 4538
T5 sequence (P38822 568-633, looked up): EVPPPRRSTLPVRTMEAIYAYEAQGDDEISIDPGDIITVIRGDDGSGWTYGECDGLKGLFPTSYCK

Bud14, P27637 = biological target: T6, Bud14, P27637; details: median of control spots 956
T6 sequence (P27637 247-328, looked up): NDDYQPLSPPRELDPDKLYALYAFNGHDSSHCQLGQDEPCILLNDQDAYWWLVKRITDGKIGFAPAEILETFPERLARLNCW

Rvs167, P39743 = details: median of control spots 2707
Chain of Rvs167, P39743 (P39743 419-482): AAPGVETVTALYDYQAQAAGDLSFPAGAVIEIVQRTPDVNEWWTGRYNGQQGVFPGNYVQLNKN

Abp1, P15891 = biological target: T7, Abp1, P15891; details: median of control spots 935
T7 sequence (P15891 535-592, looked up): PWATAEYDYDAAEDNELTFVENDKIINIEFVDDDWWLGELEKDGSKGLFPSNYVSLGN

Hof1, Q05080 = biological target: T8, Hof1, Q05080; details: median of control spots 4086
T8 sequence (Q05080 590-669, looked up): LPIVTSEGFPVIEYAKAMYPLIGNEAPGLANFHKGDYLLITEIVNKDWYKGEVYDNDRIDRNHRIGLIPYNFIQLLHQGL

Bzz1-1, P38822 = biological target: T9, Bzz1-1, P38822; details: median of control spots 4446
T9 sequence (P38822 478-572, looked up): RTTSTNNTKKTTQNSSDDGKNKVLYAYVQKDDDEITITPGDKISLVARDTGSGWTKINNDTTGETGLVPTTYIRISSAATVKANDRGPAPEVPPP

Myo5, Q04439 = biological target: T10, Myo5, Q04439; details: median of control spots 471
T10 sequence (Q04439 1072-1160, looked up): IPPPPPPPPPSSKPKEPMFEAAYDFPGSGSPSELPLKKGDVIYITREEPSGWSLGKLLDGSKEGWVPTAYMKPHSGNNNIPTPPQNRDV

Pin3, Q06449 = biological target: T11, Pin3, Q06449; details: median of control spots 2171
T11 sequence (Q06449 53-122, looked up): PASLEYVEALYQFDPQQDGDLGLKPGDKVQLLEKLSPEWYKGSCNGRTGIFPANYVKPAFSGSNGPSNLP

Hse1, P38753 = biological target: T12, Hse1, P38753; details: median of control spots 1727
T12 sequence (P38753 208-285, looked up): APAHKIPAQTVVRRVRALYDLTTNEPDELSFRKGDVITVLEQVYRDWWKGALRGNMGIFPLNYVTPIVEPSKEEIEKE

Boi1, P38041 = biological target: T13, Boi1, P38041; details: median of control spots 1162
T13 sequence (P38041 1-86, looked up): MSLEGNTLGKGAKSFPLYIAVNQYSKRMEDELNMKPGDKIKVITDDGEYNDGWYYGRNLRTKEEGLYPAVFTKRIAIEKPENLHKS

Lsb4, P32793 = biological target: T14, Lsb4, P32793; details: median of control spots 397
T14 sequence (P32793 402-468, looked up): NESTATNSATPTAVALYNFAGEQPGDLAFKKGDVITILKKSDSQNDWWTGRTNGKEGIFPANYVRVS

Bem1-2, P29366 = details: median of control spots 4347
Chain of Bem1-2, P29366 (P29366 139-227): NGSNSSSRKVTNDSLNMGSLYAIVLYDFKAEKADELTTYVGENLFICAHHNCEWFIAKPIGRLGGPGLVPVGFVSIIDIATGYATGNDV

Bbc1, P47068 = biological target: T15, Bbc1, P47068; details: median of control spots 796
T15 sequence (P47068 1-78, looked up): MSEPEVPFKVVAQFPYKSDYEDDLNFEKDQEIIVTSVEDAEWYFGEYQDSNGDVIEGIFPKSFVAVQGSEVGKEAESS

Pex13, P80667 = biological target: T16, Pex13, P80667; details: median of control spots 1341
T16 sequence (P80667 295-386, looked up): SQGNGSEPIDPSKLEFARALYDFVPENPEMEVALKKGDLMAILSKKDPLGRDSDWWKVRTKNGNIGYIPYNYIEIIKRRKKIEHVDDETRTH

Sla1-3, P32790 = biological target: T17, Sla1-3, P32790; details: median of control spots 5475
T17 sequence (P32790 344-424, looked up): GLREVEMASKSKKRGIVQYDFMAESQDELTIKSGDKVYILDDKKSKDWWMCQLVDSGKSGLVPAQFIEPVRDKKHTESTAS

Boi2, P39969 = biological target: T18, Boi2, P39969; details: median of control spots 1161
T18 sequence (P39969 32-116, looked up): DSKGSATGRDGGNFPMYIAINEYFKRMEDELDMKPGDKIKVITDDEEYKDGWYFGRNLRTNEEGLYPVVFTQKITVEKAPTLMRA

Sho1, P40073 = details: median of control spots 1148
Chain of Sho1, P40073 (P40073 287-367): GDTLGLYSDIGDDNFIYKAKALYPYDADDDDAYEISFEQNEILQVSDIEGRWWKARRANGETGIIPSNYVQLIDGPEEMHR

Bem1-1, P29366 = details: median of control spots 4282
Chain of Bem1-1, P29366 (P29366 55-141): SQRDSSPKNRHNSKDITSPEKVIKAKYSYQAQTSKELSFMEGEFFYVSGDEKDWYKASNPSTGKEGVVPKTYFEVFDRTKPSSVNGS

Lsb3, P43603 = biological target: T19, Lsb3, P43603; details: median of control spots 406
T19 sequence (P43603 385-451, looked up): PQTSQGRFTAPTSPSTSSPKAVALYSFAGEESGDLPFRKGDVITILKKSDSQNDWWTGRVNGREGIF

Nbp2, Q12163 = biological target: T20, Nbp2, Q12163; details: median of control spots 357
T20 sequence (Q12163 103-180, looked up): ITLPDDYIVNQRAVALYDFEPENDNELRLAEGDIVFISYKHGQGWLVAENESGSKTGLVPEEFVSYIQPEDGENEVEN

Fus1, P11710 = biological target: T21, Fus1, P11710; details: median of control spots 1200
T21 sequence (P11710 432-512, looked up): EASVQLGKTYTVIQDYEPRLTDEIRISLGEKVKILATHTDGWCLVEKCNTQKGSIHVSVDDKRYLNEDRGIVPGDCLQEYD

Myo3, P36006 = details: median of control spots 468
GST = details: median of control spots 978

| Binder | SPOT intensity (Sla1-2, P32790) | SPOT intensity (Cdc25, P04821) | SPOT intensity (Lsb1, P53281) | SPOT intensity (Cyk3, Q07533) | SPOT intensity (Bzz1-2, P38822) | SPOT intensity (Bud14, P27637) | SPOT intensity (Rvs167, P39743) | SPOT intensity (Abp1, P15891) | SPOT intensity (Hof1, Q05080) | SPOT intensity (Bzz1-1, P38822) | SPOT intensity (Myo5, Q04439) | SPOT intensity (Pin3, Q06449) | SPOT intensity (Hse1, P38753) | SPOT intensity (Boi1, P38041) | SPOT intensity (Lsb4, P32793) | SPOT intensity (Bem1-2, P29366) | SPOT intensity (Bbc1, P47068) | SPOT intensity (Pex13, P80667) | SPOT intensity (Sla1-3, P32790) | SPOT intensity (Boi2, P39969) | other results |
| --- | --- | --- | --- | --- | --- | --- | --- | --- | --- | --- | --- | --- | --- | --- | --- | --- | --- | --- | --- | --- | --- |
| ISPPASPPPEFDFSK | 0 | 0 | 0 | 1 | 0 | 0 | 0 | 0 | 0 | 0 | 91 | 0 | 0 | 0 | 0 | 0 | 0 | 0 | 0 | 0 | SPOT intensity (Sho1, P40073): 0; SPOT intensity (Bem1-1, P29366): 0; SPOT intensity (Lsb3, P43603): 0; SPOT intensity (Nbp2, Q12163): 0; SPOT intensity (Fus1, P11710): 0; SPOT intensity (Myo3, P36006): 233; SPOT intensity (GST): 0 |
| PSPSSSPPPIPKTAN | 0 | 1 | 0 | 0 | 3 | 0 | 0 | 0 | 0 | 1 | 300 | 0 | 0 | 1 | 0 | 0 | 0 | 0 | 0 | 1 | SPOT intensity (Sho1, P40073): 0; SPOT intensity (Bem1-1, P29366): 1; SPOT intensity (Lsb3, P43603): 0; SPOT intensity (Nbp2, Q12163): 0; SPOT intensity (Fus1, P11710): 0; SPOT intensity (Myo3, P36006): 413; SPOT intensity (GST): 1 |
| PIVPSSPAPPLPLSG | 0 | 0 | 0 | 0 | 0 | 0 | 0 | 0 | 0 | 1 | 434 | 0 | 0 | 0 | 0 | 0 | 0 | 0 | 0 | 0 | SPOT intensity (Sho1, P40073): 0; SPOT intensity (Bem1-1, P29366): 0; SPOT intensity (Lsb3, P43603): 0; SPOT intensity (Nbp2, Q12163): 0; SPOT intensity (Fus1, P11710): 1; SPOT intensity (Myo3, P36006): 399; SPOT intensity (GST): 0 |
| VPPVPLPFGIPPFPM | 1 | 8 | 6 | 2 | 0 | 2 | 0 | 25 | 84 | 2 | 207 | 63 | 0 | 0 | 16 | 2 | 3 | 129 | 0 | 1 | SPOT intensity (Sho1, P40073): 6; SPOT intensity (Bem1-1, P29366): 0; SPOT intensity (Lsb3, P43603): 4; SPOT intensity (Nbp2, Q12163): 1; SPOT intensity (Fus1, P11710): 0; SPOT intensity (Myo3, P36006): 341; SPOT intensity (GST): 0 |
